Reference: patent publication US20230312724A1 (KADMON, published 2023)
Where two headings read alike, the source gives them in different places.

T1: hB7-H4 (soluble human B7-H4, construct not named) (human, UniProt Q7Z7D3 25-259, limits assumed)
T1 construct: also called soluble hB7-H4
T1 sequence: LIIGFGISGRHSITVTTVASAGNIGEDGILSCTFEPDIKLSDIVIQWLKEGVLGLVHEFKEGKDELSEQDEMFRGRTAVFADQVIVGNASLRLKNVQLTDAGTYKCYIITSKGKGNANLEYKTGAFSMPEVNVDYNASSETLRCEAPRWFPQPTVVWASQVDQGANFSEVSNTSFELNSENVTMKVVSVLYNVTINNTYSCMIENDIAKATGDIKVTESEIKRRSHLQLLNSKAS

T2: mB7-H4 (soluble mouse B7-H4, construct not named) (mouse, UniProt Q7TSP5 25-257, limits assumed)
T2 sequence: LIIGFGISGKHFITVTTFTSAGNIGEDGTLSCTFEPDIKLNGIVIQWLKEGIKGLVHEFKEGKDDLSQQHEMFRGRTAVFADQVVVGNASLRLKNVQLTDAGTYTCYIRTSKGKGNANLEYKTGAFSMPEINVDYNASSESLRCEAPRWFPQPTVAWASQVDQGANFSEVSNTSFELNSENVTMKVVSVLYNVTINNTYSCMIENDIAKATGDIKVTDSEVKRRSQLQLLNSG

T3: human B7-H4 expressed on cells (human, UniProt Q7Z7D3 25-282)
T3 construct: Transfected CHO cells or tumor cell lines that carry hB7-H4; also called cellular hB7-H4
T3 sequence: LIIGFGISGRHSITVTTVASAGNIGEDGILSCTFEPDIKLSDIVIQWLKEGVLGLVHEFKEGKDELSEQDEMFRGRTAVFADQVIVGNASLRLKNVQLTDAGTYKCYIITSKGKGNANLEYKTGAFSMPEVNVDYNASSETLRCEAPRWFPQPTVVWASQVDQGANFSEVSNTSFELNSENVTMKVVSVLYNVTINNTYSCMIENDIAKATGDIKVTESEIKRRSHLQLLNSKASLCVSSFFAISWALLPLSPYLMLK

B1: Control antibody 1 (antibody 20502 described in US20190085080A1) (antibody, V domains shown)
VH: QLQLQESGPGLVKPSETLSLTCTVSGGSIKSGSYYWGWIRQPPGKGLEWIGNIYYSGSTYYNPSLRSRVTISVDTSKNQFSLKLSSVTAADTAVYYCAREGSYPNQFDPWGQGTLVTVSS
VL: EIVMTQSPATLSVSPGERATLSCRASQSVSSNLAWYQQKPGQAPRLLIYGASTRATGIPARFSGSGSGTEFTLTISSLQSEDFAVYYCQQYHSFPFTFGGGTKVEIK
notes: also called (+) control Ab1; (+) Ab1
B2: 39A11/57G8 (antibody, human IgG1, V domains shown)
VH: EVQLLESGGGLVQPGGSLRLSCAASGFTFSSYGMHWVRQAPGKGLEWVASISSSSGYIYYADSVKGRFTISRDNSKNTLYLQMNSLRAEDTAVYYCARASSGMDVWGQGTTVTVSS
VL: DIQMTQSPSSLSASVGDRVTITCRASQSIRSYLNWYQQKPGKAPKLLIYYASSLQSGVPSRFSGSGSGTDFTLTISSLQPEDFATYYCQQYYSTPLTFGQGTKVEIK
notes: 39A11 VH with 57G8 VL

What was measured:
[1] = target: T4, mouse B7-H4-Fc (mouse; human); assay: ELISA, coated mB7-H4-Fc
T4 construct: also called mB7-H4-Fc; mB7-H4-hFc
Experimental: (§1) ELISA experiments were performed to determine binding to hB7-H4-Fc (FIG. 5A), hB7-H4-his (FIG. 5B), mB7-H4-Fc domain (FIG. 5C), hB7-H4 IgV domain (FIG. 5D), and hB7-H4 IgC domain (FIG. 5E). Flow cytrometry experiments were performed to determine binding to CHO cells expressing hB7-H4 (FIG. 5F) or mB7-H4 (FIG. 5G). […] A cross-reactive IgV binding antibody and an IgC binding antibody were used as controls.
(§2) About 1-2 μg/ml of human or mouse B7-H4-Fc (or his-tagged) was immobilized on ELISA plates (Immuno 2HB, Thermo scientific, cat #3455) at 4° C. overnight. After blocking the plates with 3% PBS+milk, serial diluted antibodies were added to the blocked plates and incubated at RT for 1-1.5 h. After washing the plates with PBS-T (0.05%), horse radish peroxidase (HRP)-conjugated antibody targeting the hFab was added to the plate. Signals were developed by adding 3,3′,5,5′-Tetramethylbenzidine (TMB (followed 1N of H₂SO₄ to stop the reaction. The OD at 450 nm was read by ELISA plate reader (Infinite M1000 from TECAN). GraphPad from Prism was used to plot OD450 vs. antibody concentration curve and to calculate the EC50 values.

[2] = target: T5, IgV domain of human B7-H4-Fc (human); assay: ELISA on coated IgV domain of hB7-H4
T5 construct: also called hB7-H4 IgV domain
Experimental: as §2

[3] = target: T5, IgV domain of human B7-H4-Fc; assay: ELISA, coated hB7-H4 IgV domain
Experimental: as §1, §2

[4] = target: T6, human B7-H4-Fc (human); assay: ELISA, coated hB7-H4-Fc
T6 construct: also called hB7-H4-Fc; hB7-H4 Fc

[5] = target: T6, human B7-H4-Fc; assay: ELISA, coated hB7-H4-Fc; remark: listed apart in the source
Experimental: as §2

[6] = target: T1, hB7-H4 (soluble human B7-H4, construct …); assay: SPR (Biacore)
How it was run: (§3)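 Kinetic constants came from a 1:1 Langmuir fit of binding at 25 °C in HBS-EP, pH 7.4. Analyte (100 nM to 0.1 nM) flowed for 180 s, then dissociated for 1000 or 1200 s, over amine-coupled human B7-H4-Fc, human B7-H4-his or mouse B7-H4-Fc surfaces at 50-100 RU.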

[7] = target: T2, mB7-H4 (soluble mouse B7-H4, construct …); assay: SPR (Biacore)
How it was run: as §3

[8] = target: T3, human B7-H4 expressed on cells; assay: flow cytometry on SK-BR-3 cells
Experimental: Cells were harvested, washed once, and then re-suspended to the concentration of 1×10⁶ cells/ml in ice cold FACS Buffer. 25 μl of cell suspension was added to each well of a 96-well round-bottom microliter plate. Serially diluted antibodies or fusion proteins were added to each well and incubated for 1 hour at 4° C. Cells were washed three times by centrifugation at 1500 rpm for 5 minutes, and then stained with secondary antibody (1:200 dilution) for 30 min at 4° C. in the dark. Cells were washed once, re-suspended in 100 μl PBS buffer and then analyzed using Guava Flow Cytometry EasyCyte system.

[9] = target: T3, human B7-H4 expressed on cells; assay: flow cytometry, SK-BR-3 cells
How it was run: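 Antibody or fusion protein dilution series applied to 1×10⁶ cells/ml in ice-cold FACS buffer, 1 h at 4 °C; cells washed thrice, labelled 30 min at 4 °C in darkness with 1:200 secondary antibody, washed, resuspended in PBS and analysed by flow cytometry.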

T6 sequence (chain, as listed by the source): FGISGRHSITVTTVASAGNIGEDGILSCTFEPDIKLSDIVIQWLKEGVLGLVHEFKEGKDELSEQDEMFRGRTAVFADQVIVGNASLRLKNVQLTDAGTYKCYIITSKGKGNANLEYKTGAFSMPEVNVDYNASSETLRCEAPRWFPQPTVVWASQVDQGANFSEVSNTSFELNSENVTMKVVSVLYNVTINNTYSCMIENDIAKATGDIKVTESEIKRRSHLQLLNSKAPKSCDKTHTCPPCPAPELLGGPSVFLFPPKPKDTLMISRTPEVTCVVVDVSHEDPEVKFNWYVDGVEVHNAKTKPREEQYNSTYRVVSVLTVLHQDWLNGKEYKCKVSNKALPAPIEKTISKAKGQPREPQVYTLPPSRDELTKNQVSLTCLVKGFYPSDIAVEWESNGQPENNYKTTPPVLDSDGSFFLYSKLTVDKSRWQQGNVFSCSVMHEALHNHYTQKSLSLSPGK
T5 sequence (chain, as listed by the source): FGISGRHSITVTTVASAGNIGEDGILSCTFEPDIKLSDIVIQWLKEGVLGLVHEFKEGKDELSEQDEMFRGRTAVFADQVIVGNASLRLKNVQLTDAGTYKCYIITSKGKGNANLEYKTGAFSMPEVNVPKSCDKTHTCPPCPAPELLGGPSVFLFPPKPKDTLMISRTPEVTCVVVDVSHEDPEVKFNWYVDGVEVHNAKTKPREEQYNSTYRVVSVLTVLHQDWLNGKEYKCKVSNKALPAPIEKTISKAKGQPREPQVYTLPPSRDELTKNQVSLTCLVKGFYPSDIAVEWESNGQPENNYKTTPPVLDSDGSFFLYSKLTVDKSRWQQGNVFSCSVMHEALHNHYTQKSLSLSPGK
T4 sequence (chain, as listed by the source): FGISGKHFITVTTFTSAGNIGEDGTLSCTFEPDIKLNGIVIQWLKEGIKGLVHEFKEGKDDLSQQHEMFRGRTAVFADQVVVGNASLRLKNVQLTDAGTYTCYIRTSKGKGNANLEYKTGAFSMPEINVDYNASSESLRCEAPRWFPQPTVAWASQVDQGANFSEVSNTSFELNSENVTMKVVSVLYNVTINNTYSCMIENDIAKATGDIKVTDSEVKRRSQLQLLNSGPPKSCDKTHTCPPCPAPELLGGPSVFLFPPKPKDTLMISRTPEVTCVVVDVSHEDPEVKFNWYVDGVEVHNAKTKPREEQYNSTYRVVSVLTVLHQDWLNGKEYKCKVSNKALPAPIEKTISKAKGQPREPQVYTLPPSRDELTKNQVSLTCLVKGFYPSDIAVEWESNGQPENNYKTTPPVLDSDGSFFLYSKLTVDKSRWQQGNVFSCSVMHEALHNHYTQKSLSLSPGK

| Binder | EC50 (read off the curve) [1] | EC50 (read off the curve) [2] | EC50 (read off the curve) [3] | EC50 (read off the curve) [4] | EC50 (read off the curve) [5] | Kd [6] | Kd [7] | EC50 (read off the curve) [8] | EC50 [9] |
| --- | --- | --- | --- | --- | --- | --- | --- | --- | --- |
| B1 | ~0.1 nM | ~0.2 nM | ~0.2 nM | ~0.02 µg/mL | ~0.1 nM |  |  |  |  |
| B2 |  |  |  |  |  | 0.303 nM | 0.0998 nM | ~2 nM | 1.9 nM |
